Experimental data from US20230058489A1, “COMBINATION COMPRISING A TIM-3 INHIBITOR AND A HYPOMETHYLATING AGENT FOR USE IN TREATING MYELODYSPLASTIC SYNDROME OR CHRONIC MYELOMONOCYTIC LEUKEMIA” (Novartis AG, priority 2020, published 2023).

Molecular target: T1, interaction between TIM-3 and Galectin-9 (Homo sapiens, UniProt Q8TDQ0)
T1 construct: purchased R&D Systems
Test: MesoScale competition assay, Gal9-SULFOTag binding to coated TIM-3 fusion protein
Settings: serial dilutions, Galectin-9 SULFOTag 100 nM, FIG. 1
Procedure: TIM-3 fusion protein (R&D Systems) was coated on a standard MesoScale 96 well plate (Meso Scale Discovery) at 2 μg/ml in PBS (Phosphate Buffered Saline) and incubated for six hours at room temperature. The plate was washed three times with PBST (PBS buffer containing 0.05% Tween-20) and blocked with PBS containing 5% Probumin (Millipore) overnight at 4° C. […] The plate was then washed three times with PBST, and Galectin-9 labeled with MSD SULFOTag (Meso Scale Discovery) as per manufacturer's instructions, diluted in Assay Diluent to 100 nM, was added to the plate for one hour at room temperature on an orbital shaker. The plate was again washed three times with PBST, and Read Buffer T (1×) was added to the plate. The plate was read on MA600 Imager, and competition was assessed as a measure of the ability of the antibody to block Gal9-SULFOTag signal to TIM-3 receptor.

- ability to block Gal9-SULFOTag signal to TIM-3 receptor (competition): did not
B1: Galectin-9 protein: control recombinant human Galectin-9 protein, unlabeled (protein)
chain: AFSGSQAPYLSPAVPFSGTIQGGLQDGLQITVNGTVLSSSGTRFAVNFQTGFSGNDIAFHFNPRFEDGGYVVCNTRQNGSWGPEERKTHMPFQKGMPFDLCFLVQSSDFKVMVNGILFVQYFHRVPFHRVDTISVNGSVQLSYISFQPPGVWPANPAPITQTVIHTVQSAPGQMFSTPAIPPMMYPHPAYPMPFITTILGGLYPSKSILLSGTVLPSAQRFHINLCSGNHIAFHLNPRFDENAVVRNTQIDNSWGSEERSLPRKMPFVRGQSFSVWILCEAHCLKVAVDGQHLFEYYHRLRNLPTINRLEVGGDIQLTHVQT
